Assay [1] deals with T1, BCMA-His protein (extracellular region of human BCMA, His-tagged) (human, UniProt Q02223 1-54).
T1 construct: extracellular domain; Made in house and purified on a Ni column; also called human BCMA antigen; recombinant BCMA-His protein; not shown: His tag
T1 sequence (looked up): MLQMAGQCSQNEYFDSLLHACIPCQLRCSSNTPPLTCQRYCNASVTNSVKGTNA
In words: flow cytometry of CAR-T cells stained with BCMA-His and an anti-His tag antibody. A general note: A flow cytometer gives signals particle by particle.

The target of assay [2] is T1, BCMA-His protein (extracellular region …). The assay is described as follows: flow cytometry (MFI) of transduced K562 cells stained with BCMA-His and an anti-His tag antibody.
The target is the same in assay [3]. The assay is described as follows: monoclonal phage ELISA on coated BCMA protein, HA-HRP detection. (In general: An ELISA detects its analyte on a solid surface through an enzyme-linked reagent.)
For assay [4] the target is unchanged. In words: ELISA, BCMA-His coated, anti-human IgG1 Fc-HRP detection.
For assay [5] the target is unchanged. The assay is described as follows: SPR (Biacore 8K), BCMA-His captured on NTA chip, nanobody-Fc as analyte, 1:1 binding fit. In general terms: Surface plasmon resonance follows binding to a sensor surface in real time, without labels.

B1: NMC003-01 (single VHH CAR with VHH01, on CAR-T cells) (other)
chain: QVQLQESGGGSVQPGGSLRLSCKASGFTFSPSAMSWARQAPGKEIEWVSNIYPDGRTYYADSMKGRFTISRDNAENTVYLQMNSLKPEDTAVYYCLIGVGIVAGQVVSPYWGQGTQVTVSSTTPAPRPPTPAPTIASQPLSLRPEACRPAAGGAVHTRGLDFACDIYIWAPLAGTCGVLLLSLVITLYCKRGRKKLLYIFKQPFMRPVQTTQEEDGCSCRFPEEEEGGCELRVKFSRSADAPAYKQGQNQLYNELNLGRREEYDVLDKRRGRDPEMGGKPRRKNPQEGLYNELQKDKMAEAYSEIGMKGERRRGKGHDGLYQGLSTATKDTYDALHMQALPPR
notes: also called NMC003-01 CAR-T
For the molecule B1, the binding result in assay [1] is on record as “binds”.

B2: dNMC003-A (dual VHH CAR, VHH02-(G4S)5-VHH02, on K562 or CAR-T cells) (other)
chain: QVQLQESGGGLVQPGGSLRLSCAASGFTFSNYAMSWFRQGPGKERELVAGIDRTGGSTRTADSVQGRFTISRDNAKNKVYLQMNSLKPEDTAVYYCKALRTPGWGTSPDVVGYWGQGTQVTVSSGGGGSGGGGSGGGGSGGGGSGGGGSQVQLQESGGGLVQPGGSLRLSCAASGFTFSNYAMSWFRQGPGKERELVAGIDRTGGSTRTADSVQGRFTISRDNAKNKVYLQMNSLKPEDTAVYYCKALRTPGWGTSPDVVGYWGQGTQVTVSSTTPAPRPPTPAPTIASQPLSLRPEACRPAAGGAVHTRGLDFACDIYIWAPLAGTCGVLLLSLVITLYCKRGRKKLLYIFKQPFMRPVQTTQEEDGCSCRFPEEEEGGCELRVKFSRSADAPAYKQGQNQLYNELNLGRREEYDVLDKRRGRDPEMGGKPRRKNPQEGLYNELQKDKMAEAYSEIGMKGERRRGKGHDGLYQGLSTATKDTYDALHMQALPPR
notes: T2A-tEGFR follows in the construct and is split off at T2A; also called K562-dNMC003-A; dNMC003-A CAR-T
With B2, the binding result in assay [2] is listed as “binds”.

B3: Nb003-01 (VHH01), monoclonal phage clone (VHH)
VHH: QVQLQESGGGSVQPGGSLRLSCKASGFTFSPSAMSWARQAPGKEIEWVSNIYPDGRTYYADSMKGRFTISRDNAENTVYLQMNSLKPEDTAVYYCLIGVGIVAGQVVSPYWGQGTQVTVSS
Take B3: in assay [3], the binding result is given as “binds”.

B4: Nb003-01-Fc (Fc fusion)
chain: B3 VHH
modifications: biotinylated for the flow cytometry assay only (sites not given)
notes: also called VHH01; not shown: N-terminal SUMO tag from plasmid pET-28a-Sumo-Nb-Fc; human IgG1 Fc tag at the C-terminus
In assay [4], B4 showed an EC50 of 2.05 nM. Further, in assay [5], the Kd was found to be 62 nM, the koff is 0.000857 s⁻¹ and the kon turned out to be 13800 M⁻¹ s⁻¹.

B5: Nb003-02-Fc (Fc fusion)
chain: QVQLQESGGGLVQPGGSLRLSCAASGFTFSNYAMSWFRQGPGKERELVAGIDRTGGSTRTADSVQGRFTISRDNAKNKVYLQMNSLKPEDTAVYYCKALRTPGWGTSPDVVGYWGQGTQVTVSS
modifications: biotinylated for the flow cytometry assay only (sites not given)
notes: also called VHH02; not shown: N-terminal SUMO tag from plasmid pET-28a-Sumo-Nb-Fc; human IgG1 Fc tag at the C-terminus
In assay [4], B5 registered an EC50 of 0.652 nM. For the same molecule, in assay [5], the Kd worked out at 1.79 nM, the koff stood at 0.00212 s⁻¹ and the kon was determined as 1.19e+06 M⁻¹ s⁻¹.

B6: Nb003-02 (VHH02), monoclonal phage clone (VHH)
VHH: B5 chain
For the molecule B6, in assay [3], the binding result is reported as “binds”.

B7: dNb003-B-Fc (Fc fusion)
chain: QVQLQESGGGSVQPGGSLRLSCKASGFTFSPSAMSWARQAPGKEIEWVSNIYPDGRTYYADSMKGRFTISRDNAENTVYLQMNSLKPEDTAVYYCLIGVGIVAGQVVSPYWGQGTQVTVSSGGGGSGGGGSGGGGSGGGGSGGGGSQVQLQESGGGLVQPGGSLRLSCAASGFTFSNYAMSWFRQGPGKERELVAGIDRTGGSTRTADSVQGRFTISRDNAKNKVYLQMNSLKPEDTAVYYCKALRTPGWGTSPDVVGYWGQGTQVTVSS
modifications: biotinylated for the flow cytometry assay only (sites not given)
notes: not shown: N-terminal SUMO tag from plasmid pET-28a-Sumo-Nb-Fc; human IgG1 Fc tag at the C-terminus
For the molecule B7, the EC50 in assay [4] came to 0.346 nM. In assay [5], the equilibrium dissociation constant (Kd) came out at 1.94 nM, the koff came out at 0.00245 s⁻¹ and the kon turned out to be 1.27e+06 M⁻¹ s⁻¹.

B8: dNMC003-B (dual VHH CAR, VHH01-(G4S)5-VHH02, on K562 or CAR-T cells) (other)
chain: QVQLQESGGGSVQPGGSLRLSCKASGFTFSPSAMSWARQAPGKEIEWVSNIYPDGRTYYADSMKGRFTISRDNAENTVYLQMNSLKPEDTAVYYCLIGVGIVAGQVVSPYWGQGTQVTVSSGGGGSGGGGSGGGGSGGGGSGGGGSQVQLQESGGGLVQPGGSLRLSCAASGFTFSNYAMSWFRQGPGKERELVAGIDRTGGSTRTADSVQGRFTISRDNAKNKVYLQMNSLKPEDTAVYYCKALRTPGWGTSPDVVGYWGQGTQVTVSSTTPAPRPPTPAPTIASQPLSLRPEACRPAAGGAVHTRGLDFACDIYIWAPLAGTCGVLLLSLVITLYCKRGRKKLLYIFKQPFMRPVQTTQEEDGCSCRFPEEEEGGCELRVKFSRSADAPAYKQGQNQLYNELNLGRREEYDVLDKRRGRDPEMGGKPRRKNPQEGLYNELQKDKMAEAYSEIGMKGERRRGKGHDGLYQGLSTATKDTYDALHMQALPPR
notes: T2A-tEGFR follows in the construct and is split off at T2A; also called K562-dNMC003-B; dNMC003-B CAR-T
With B8, in assay [2], the binding result was “binds”.

The term EC50 denotes the concentration that produces a half-maximal response. A higher EC50 goes with lower potency in that assay. In general, Kd refers to the equilibrium constant for the complex coming apart. A lower Kd goes with higher affinity. The term koff denotes the rate constant with which the complex falls apart. The low end stands for slow dissociation, the high end for fast dissociation. What is called kon is the second-order rate constant of association. A high value points to faster complex formation.
